T1: human CFHL3-His (ATX-P-58) (human, UniProt Q02985 19-330)
T1 construct: also called human CFHR3 protein; CFHR3; not shown: C-terminal His tag (and linker)
T1 sequence (looked up): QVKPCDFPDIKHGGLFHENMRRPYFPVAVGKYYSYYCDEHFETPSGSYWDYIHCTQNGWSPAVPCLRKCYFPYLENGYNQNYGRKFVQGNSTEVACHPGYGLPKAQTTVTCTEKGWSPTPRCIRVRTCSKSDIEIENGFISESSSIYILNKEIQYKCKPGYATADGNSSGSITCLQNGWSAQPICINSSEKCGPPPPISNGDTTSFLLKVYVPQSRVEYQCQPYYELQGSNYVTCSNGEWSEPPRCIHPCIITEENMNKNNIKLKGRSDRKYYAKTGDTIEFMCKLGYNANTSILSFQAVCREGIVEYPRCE

T2: Human CFHL1-Y402H-His (ATX-P-421) (human)
T2 construct: also called human CFHL-1 (Y402H) protein
T2 chain: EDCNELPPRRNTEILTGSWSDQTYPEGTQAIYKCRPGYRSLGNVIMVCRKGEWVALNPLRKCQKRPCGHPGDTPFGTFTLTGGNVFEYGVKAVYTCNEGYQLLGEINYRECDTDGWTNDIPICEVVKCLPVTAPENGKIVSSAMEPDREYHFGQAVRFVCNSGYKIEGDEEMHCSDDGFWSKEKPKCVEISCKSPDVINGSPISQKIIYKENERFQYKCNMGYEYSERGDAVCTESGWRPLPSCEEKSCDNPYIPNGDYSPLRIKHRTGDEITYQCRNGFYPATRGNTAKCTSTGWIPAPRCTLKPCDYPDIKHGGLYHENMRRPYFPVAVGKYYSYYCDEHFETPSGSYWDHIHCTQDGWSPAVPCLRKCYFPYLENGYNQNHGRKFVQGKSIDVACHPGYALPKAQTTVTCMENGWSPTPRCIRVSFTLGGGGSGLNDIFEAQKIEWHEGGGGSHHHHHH


Key:
[1] = target: T1, human CFHL3-His (ATX-P-58); experiment: Carterra LSA biosensor, mAb printed on chip, cutoff set by isotype control
Experimental: (§1) Experiments were also conducted to determine the reactivity of the CFHR4 antibodies with the human CFHR3 protein (FIG. 9). The binding experiments were performed on Carterra LSA with a running buffer of PBS pH 7.40, 1% BSA, 0.05% Tween20. Antibodies were covalently printed on an HC30M chip. Chip was activated with 33 mM s-NHS and 133 mM EDC in 100 mM MES pH 5.5 for 7 minutes. Antibodies at 10 mg/ml in acetic acid buffer pH 4.5 were used for printing for 10 min. The printed chip was then quenched with 1 M ethanolamine pH 8.5 for 7 min. For the reactivity assay, ATX-P-58, human CFHL3-His, at 550 nM was tested with 5 min association followed by 15 min dissociation. Results were processed and analyzed in Carterra LSA Kinetics Software. The data was referenced with the interstitial reference spots and double-referenced to a buffer cycle, and then the responses (nm) after association were reported. Isotype control was used to determine the cutoff response for positive binding.
as §1, with “CFHL-1 (Y402H)” for “CFHR3”, “10).” for “9).”, “ATX-P-421,” for “ATX-P-58,”, “CFHL1-Y402H-His,” for “CFHL3-His,”, “380” for “550”

[2] = target: T2, Human CFHL1-Y402H-His (ATX-P-421); experiment: Carterra LSA biosensor, mAb printed on chip, human CFHL1-Y402H-His at 380 nM
Experimental: as §1, with “CFHL-1 (Y402H)” for “CFHR3”, “10).” for “9).”, “ATX-P-421,” for “ATX-P-58,”, “CFHL1-Y402H-His,” for “CFHL3-His,”, “380” for “550”

[3] = target: T2, Human CFHL1-Y402H-His (ATX-P-421); experiment: Carterra LSA biosensor, mAb printed on chip, cutoff set by isotype control
Experimental: as §1
as §1, with “CFHL-1 (Y402H)” for “CFHR3”, “10).” for “9).”, “ATX-P-421,” for “ATX-P-58,”, “CFHL1-Y402H-His,” for “CFHL3-His,”, “380” for “550”

[4] = target: T1, human CFHL3-His (ATX-P-58); experiment: Carterra LSA biosensor, mAb printed on chip, human CFHL3-His at 550 nM
Experimental: as §1

Binder | binding result [1] | binding result [2] | binding result [3] | binding result [4]
ATX-P-603 (antibody, human IgG1, kappa, N297A, V domains shown) VH: QVQLQESGPGLVKPSGTLSLTCAVSGGSISGSHWWSWFRQPPGKGLEWIGEIYHTGSTNKNPSLKSRVTISLDKSKNQFSLRLRSVTDADTAVYYCARDQYTGSPRDAFDIWGQGTMVTVSS VL: not shown |  |  | no binding (tested: 380 nM) | 
ATX-P-570 (antibody, human IgG1, kappa, N297A, V domains shown) VH: QVQLQESGPGLVKPSETMSLTCTVSGGSFTGYYWSWIRQPPGKGLEWIGYVHYSGGTKSNPSLKSRVTISVDTSKNQFSLKLSSVTAADTAVYYCARERYEWNSYFDYWGQGTLVTVSS VL: not shown | no binding (tested: 550 nM) | binds |  | 
ATX-P-592 (antibody, human IgG1, kappa, N297A, V domains shown) VH: QVQLQQSGPGLVKPSQTLSLTCAISGDSVSSNSAAWNWIRQSPSRGLEWLGRTYYRSKWYSDYPLSVKSRITINPDTSKNQFSLQLNSVTPEDTAVYYCARDSGIVETTPFDYWGQGTLVTVSS VL: not shown |  |  | no binding (tested: 380 nM) | binds
ATX-P-572 (antibody, human IgG1, kappa, N297A, V domains shown) VH: QVQLQQSGPGLVKPSQTLSLTCAISGDSVSSNSAAWNWIRQSPSRGLEWLGMTYYRSKWYSVFAVSVKSRITINTDTSKNQFSLQLNSVTPEDTAVYYCAREGGIVGATPFDYWGQGTLVTVSS VL: not shown |  |  | no binding (tested: 380 nM) | binds
ATX-P-595 (antibody, human IgG1, kappa, N297A, V domains shown) VH: QVQLQQSGPGLVKPSQTLSLTCAISGDSVSSNSAAWNWIRQSPSRGLEWLGRTYYRSKWFNDYALSVKSRITINPDTSKNQFSLHLNSVTPEDTAVYYCAREPGIVAPGPFDYWGQGTLVTVSS VL: not shown |  | binds |  | binds
ATX-P-608 (antibody, human IgG1, kappa, N297A, V domains shown) VH: QVQLQESGPGLVKPSGTLSLTCAVSGGSISSSNWWSWVRQSPGKGLEWIGEIYHTGSTNKKPSLKSRVIISVDKSKNQFSLKLISVNAADTAIYYCARDREGGTTEAFDIWGQGTMVTVSS VL: EIVMTQSPATLSVSPGERATLSCRASQSVSSNLAWYQQKPGQAPRLLIYGASTRATGIPVRFSGSGSGTQFTLTISSLQSEDFAVYYCQQYDNWRTFGQGTRLEIKR |  |  | no binding (tested: 380 nM) | binds
ATX-P-596 (antibody, human IgG1, kappa, N297A, V domains shown) VH: EVQLVESGGGLVQPGRSLRLSCAASGFSFDDYAMHWVRQVPGKGLEWVSGISWTGGSVGYADPVKGRFTISRDNAKNSLYLQMNSLRPEDTALYYCAKDMGDGYSRNWPFDYWGQGTLVTVSS VL: not shown |  | binds |  | binds
ATX-P-594 (antibody, human IgG1, kappa, N297A, V domains shown) VH: QVQLQQSGPGLVKPSQTLSLTCAISGDSVSSNSASWNWIRQSPSRGLEWLGTTYYRSKWFNVYAVSVKSRITINPDTSKNQFSLHLNSVTPEDTAIYFCTRDRGDLLHWYFDLWGRGTLVTVSS VL: EIVLTQSPGTLSLSPGERATLSCRASQSVSSSYLAWYQQKPGQSPRLLIYGASSRATGIPDRFSGSGSGTDFTLTISRLEPEDFAVYYCQQYGRSVTFGGGTKLEIKR |  | binds |  | binds

The next lines start with the values.

binding result [1] | binding result [2] | binding result [3] | binding result [4] | Binder
no binding (tested: 550 nM) | binds |  |  | ATX-P-571 (antibody, human IgG1, kappa, N297A, V domains shown) VH: QVQLQESGPGLVKPSGTLSLTCAVSGGSISSRNWWSWVRQPPGKGLEWIGEIYHGGTTNYNPSLKSRVTISVDKSKNQFSLKLSSVTAADTAVYYCARGGLRLGELSPNAFDIWGQGTMVTVSS VL: DIQMTQSPSSLSASVGDRVTITCRASQSISSYLNWYQQKPGKAPKVLIYAASSLQSGIPSRFSGSGSGTDFTLTISSLQPEDFATYYCQETYSVPLTFGGGTKVEIKR
 |  | no binding (tested: 380 nM) | binds | ATX-P-569 (antibody, human IgG1, kappa, N297A, V domains shown) VH: EVQLVESGGGLAQFGRSLRLSCAASGFTFDDYAMHWLRQAPGMGLEWVSGISWNSGSIGYADSVKGRFTIARDNAKNSVHLQMNSLRAEDTALYYCAKDIGNGYTKGDVFDIWGQGTMVTVSS VL: DIQMTQSPSTLSASVGDSVTITCRASQNIITWLAWYQQKPGKAPNLLIYKASSLESGVPSRFSGSGSGTEFTLTISSLQPDDFATYYCQQYSSYSYTFGQGTKLEIKR
no binding (tested: 550 nM) | binds |  |  | ATX-P-582 (antibody, human IgG1, kappa, N297A, V domains shown) VH: QVQLQESGPGLVKPSGTLSLTCAVSGGSISISKWWSWVRQPPGKGLEWIGEIYHTGSTNYHPSLKSRVTISVDKSKNQFYLKLNSVTAADTAVYYCARDELRLGELSPSLDIWGQGTMVTVSS VL: DIQMTQSPSSLSASVGDRVTITCRASQNINNYLNWFRQKPGKAPKLLIFAASSLQSGVPSRFSGSESGTDFTLTISSLQPEDFATYYCQQSYSTPLTFGGGTKVEIKR
 | binds |  | binds | ATX-P-588 (antibody, human IgG1, kappa, N297A, V domains shown) VH: EVQLVESGGGLVQPGRSLRLSCAASGFTFEDYAMHWVRQAPGKGLEWVSGISWNSGSIGYADSVKGRFTISRDNAKKSLYLQMNSLRAEDTALYYCTKDRDDGYNYAGVFDYWGQGTLVTVSS VL: not shown
 | binds |  | binds | ATX-P-600 (antibody, human IgG1, kappa, N297A, V domains shown) VH: EVQLVESGGGLVQPGRSLRLSCAASGFTFDDYAMHWVRQVPGRGLEWVSGISWSGGSIGYADSVKGRFTISRDNSKNSLYLQMNSLRAEDTALYYCTKDREDGYNYGGVFDYWGQGTLVTVSS VL: EIVLTQSPGTLSLSPGERATLSCRASQNVRGSYLAWYQQKPGQAPRLLIYGASNRATDIPDRFSGSGSGTDFTLTISGLEPEDFVVYYCQQYGSSYTFGQGTKVEIKR
 |  | no binding (tested: 380 nM) | binds | ATX-P-609 (antibody, human IgG1, kappa, N297A, V domains shown) VH: QVQLQESGPGLVKPSGTLSLTCAVSGGSISSSNWWSWVRQPPGKGLEWIGEIYHSGSTNYNPSLKSRVTISVDKSKNQFSLKLRSVTAADTAVYYCARDQLSSGPTDAFDIWGQGTMVTVSS VL: EIVMTQSPATLSVSPGERATLSCRASQSVSSNLAWYQQKPGQAPRLLIYGASTRATGIPVRFSGSGSGTQFTLTISSLQSEDFAVYYCQQYDNWRTFGQGTKLEIKR
 | binds |  | binds | ATX-P-561 (antibody, human IgG1, kappa, N297A, V domains shown) VH: QVQLQQSGPGLVKPSQTLSLTCAISGDSVSSNSAAWNWIRQSPSRGLEWLGRTYYRSKWYNGYAVSMKSRITINPDTSKNQFSLQLNSVTPEDTAMYYCAREGVGATTGFDYWGQGTLVTVSS VL: DIQMTQSPSSLSASVGDRVTITCRASQGISSWLTWYQQKPGKAPKLLIYAASSLQGGVPSRFSGSGSGTDFTLTISSLQPEDFATYYCQQANSFPPTFGQGTKVEIKR
 |  | no binding (tested: 380 nM) | binds | ATX-P-610 (antibody, human IgG1, kappa, N297A, V domains shown) VH: QVQLQQSGPGLVKSSQTLSITCAISGDSVSSNSAAWNWIRQSPSRGLEWLGRTYYRSKWYNDYALSVKSRIIIKSDTSKNQFSLQLNSVTPEDTAVYYCAREPGIAAPGPFDYWGQGSLVTVSS VL: DIQMTQSPSSVSASVGDRVTITCRASQGISSWLAWYQQKPGKAPKLLIYAASSLQSGVPSRFSGSGSGTDFTLTISSLQPEDFATYYCQQNYRTPITFGQGTRLEIKR
